Measurements reported in US20020132974A1, “BETA SHEET FORMING PEPTIDES AND GELS MADE THEREOF” (priority 1995, published 2002).

Key:
[1] = response of peptide gels to chemical switches (pH, salt, surfactant, solvent); format: physicochemical
Excerpt: As mentioned, the gels of the invention are susceptible to chemical triggers which result in changes in the properties of the gels so that they switch from, for example, a first fluid state to a gel state or vica versa.
Addition of salt causes the network to contract and phase separate as a more concentrated gel phase. Changing the polarity of the solvent, ie making it more polar (water) or non-polar ( chloroform), preserves the β-sheet structure, but the gel network is destabilised and precipitation of the peptide occurs. In strong hydrogen-bonding donor solvents (like hexafluoroisopropanol), the peptide adopts an α-helical conformation (FIG. 3b) and there is no gelation. Solvents containing arornatic groups cause destabilisation of β-tapes by 20-30% and disruption of the gels. This is believed to be due to competition between intermolecular peptide aromatic side-chain interactions and the aromatic groups of the solvent Acetylation at the N-terminus and amination at the C-temiinus of the 27-residue peptide results in a preference for the a-helical conformation and gels are not formed. It seems that favourable interactions between β-nanotapes and solvent are important for gel stabilisation. By appropriate peptide design, peptides can be produced which will form nanotapes and gels in a variety of solvents, including water. For example, peptides derived from the Drosophila Toll receptor protein, from the Alzheimer amyloid peptide and from desmin filaments and from the β-domain of the leu lysozyme (SER-1). Chemical switches also include changes in pH, for example, the hydrophilic peptide AcNH-Gln-Ala-Thr-Asn-Arg-Asn-Thr-AspGly-Ser-Thr-AspTyr-Gly-Ile-Leu-Gin-Ile-Asn-Ser-Arg-CONH2 (SER-1) forms a gel at neutral and acidic pH, whilst it switches to a neutonial fluid at pH higher than 11.

[2] = gel and β-tape formation of peptides in solvents; format: physicochemical
Excerpt: Compatibility of the β-sheet surface and the solvent are also essential for gelation as opposed to peptide precipitation out of solution. For example, K24 forms β-tapes with both polar and apolar groups on their surfaces. Thus, they can form gels in solvents with intermediate polarity, corresponding to values of relative dielectric constants, εγ=εr=24-62.
In organic solvents such as ethanol, methanol and 2-chloroethanol we have discovered that the aforementioned peptide sequences self-assemble to provide elongated tapes approximately 8 nm wide and a single molecule in thickness.

NH2-Lys-Leu-Glu-Ala-Leu-Tyr-Ile-Leu-Met-Val-Leu-Cly-Phe-Phe-Gly-Phe-Phe-Thr-Leu-Gly-Ie-Met-Leu-Ser-Tyr-Ile-Arg-CO2H [K27]
effect of added 1,1,1,3,3,3-hexafluoropropanol-2 on the gel ([1]; addition of 50% v 1,1,1,3,3,3-hexafluoropropanol-2): destroys the gel | effect of added water on the gel ([1]; addition of 50% v water): destroys the gel | effect of sodium dodecylsulfate (SDS) on the gel ([1]; molar ratio 1 K27-350 SDS): destroys the gel

NH2-Lys-Leu-Glu-Ala-Leu-Tyr-Val-Leu-Gly-Phe-Phe-Gly-Phe-Phe-Thr-Leu-Gly-Be-Met-Leu-Ser-Tyr-Rle-Arg-CO2H [K24]
effect of lithium chloride on the gel ([1]; molar ratio 1 peptide-7 lithium chloride): contracts | drop of the fraction of β-sheet structure ([1]; solvents containing aromatic groups): 20-30% | gel formation in solvents of higher or lower polarity ([2]; polarity above or below dielectric constant 24-62, β-sheet structures poorly soluble, precipitate): gel is not formed | relative dielectric constant of solvents in which gels are formed ([2]; solvents or solvent mixtures of intermediate polarity): 24-62
